In paper PMC10432803:

What was measured:
[1] = biological target: PaSOD-1 (Cys-less CuZnSOD from Paenibacillus lautus NBRC 15380, WP_246059278.1 without the predicted signal peptide) (Paenibacillus lautus NBRC 15380); test: SEC-MALS; holo form (copper and zinc bound); 20 μM protein in MN buffer (50 mM Mops, 100 mM NaCl, pH 7.0); Cosmosil 5Diol-300-II column, miniDAWN TREOS
[2] = biological target: PaSOD-1 (Cys-less CuZnSOD from Paenibacillus lautus NBRC 15380, WP_246059278.1 without the predicted signal peptide) (Paenibacillus lautus NBRC 15380); test: SEC-MALS; apo form; 20 μM protein in MN buffer (50 mM Mops, 100 mM NaCl, pH 7.0); Cosmosil 5Diol-300-II column, miniDAWN TREOS
[3] = biological target: PaSOD-2 (Cys-less CuZnSOD from Paenibacillus lautus NBRC 15380, WP_246059286.1 without the predicted signal peptide) (Paenibacillus lautus NBRC 15380); test: SEC-MALS; holo form (copper and zinc bound); 20 μM protein in MN buffer (50 mM Mops, 100 mM NaCl, pH 7.0); Cosmosil 5Diol-300-II column, miniDAWN TREOS
[4] = biological target: PaSOD-2 (Cys-less CuZnSOD from Paenibacillus lautus NBRC 15380, WP_246059286.1 without the predicted signal peptide) (Paenibacillus lautus NBRC 15380); test: SEC-MALS; apo form; 20 μM protein in MN buffer (50 mM Mops, 100 mM NaCl, pH 7.0); Cosmosil 5Diol-300-II column, miniDAWN TREOS

Substance: PaSOD-1 (Cys-less CuZnSOD from Paenibacillus lautus NBRC 15380, WP_246059278.1 without the predicted signal peptide) (enzyme)
- stoichiometry N [1]: 2
- stoichiometry N [2]: 2

Substance: PaSOD-2 (Cys-less CuZnSOD from Paenibacillus lautus NBRC 15380, WP_246059286.1 without the predicted signal peptide) (enzyme)
- stoichiometry N [3]: 2
- stoichiometry N [4]: 2
